Measured values: the supplement of paper PMC9170038

System: MS2 coat protein
Assay: apparent KD of MS2 coat protein; designed switch direction (-1 OFF switch, 1 ON switch): -1; higher = weaker reporter binding
Outline: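 SNAP-549-labelled MS2 coat protein was titrated, doubling from 0.7 or 1.5 nM to 3 µM, over designed RNA switches transcribed on Illumina chips by stalled E. coli RNA polymerase. Runs were done without input, with 200 uM small-molecule ligand, or with an oligonucleotide input. Apparent KD is the per-design median over clusters of curve-fitted normalised fluorescence.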

[1] = Eterna round: R95, input ligand: microRNA oligo, concentration not stated
[2] = input ligand: microRNA oligo, concentration not stated
[3] = Eterna round: R95, input ligand: FMN 200 uM
[4] = Eterna round: R95, input ligand: none

Sequence	apparent KD of MS2 coat protein (input ligand: FMN 200 uM)	apparent KD of MS2 coat protein (input ligand: none)	apparent KD of MS2 coat protein [1]	apparent KD of MS2 coat protein [2]	apparent KD of MS2 coat protein [3]	apparent KD of MS2 coat protein [4]
ACCCUAAUCGUGAGGAUAUACUGCGUCAAAGACGGGUAGAAGGUACAUGAGGAUCACCCAUGUUUGGCUACUAA [Eternabot (L2) Solution 48] (Eterna round: R97, puzzle: Brourd's mod of Exclusion 4)	28.3 nM	27.7 nM	–	–	–	–
GGAUCGAAUGUCAGGAUAUGCUGGUCCUUGGAUCAGCAGAAGGGACAUGAGGAUCACCCAUGUCCUCUCGGUCC [Eli bmx4 4.52] (Eterna round: R97, puzzle: Brourd's mod of Exclusion 4)	222 nM	26.5 nM	–	–	–	–
GCACUGCGAGGAUAUACAUGAGGAUCACCCAUGUGUCGGCAGACAUGGUUAAUCUAAGGUAGAAGGCGCGUAAA [JR_Ex3_Sub004] (Eterna round: R97, puzzle: Exclusion 3)	16.3 nM	993 nM	–	–	–	–
UAGGUGUGAGGAUAUGGUAAAGAUAAGAUGAUGAAAGAACUCCAGAAGGCACAUGAGGAUCACCCAUGUAGAUG [JL-ex4-2.16 Jieux mod] (puzzle: Exclusion 4)	–	–	33.3 nM	–	–	–
GCGCACCUACCAAAAGGUAGGUCAACAUGAGGAUCACCCAUGUAGGAUAUCGAUUGCUUUGCAGUCGAGAAGGGCAUGAUGCGC [JL ENG3 3.80 Mod 14] (Eterna round: R96, puzzle: Exclusion NG 3)	59.1 nM	44.2 nM	–	36.6 nM	–	–
AAAAUGUAAGGAUAUCGUUCACUUGACAAAAGUCAAGUGAACGAGAAGGUACAUGAGGAUCACCCAUGUAUGGG [-29.9, -29 kcal, A 38%] (Eterna round: R97, puzzle: Exclusion 4)	131 nM	1340 nM	–	–	–	–
CGUCAGUGAGGAUAUGGUAACGUUUACAUGAGGAUCACCCAUGUUUCAUGGGACUAGAGACUAGAAGGUACUGACG [EX5 #42] (Eterna round: R97, puzzle: Exclusion 5)	189 nM	132 nM	–	–	–	–
GGUUGGCGAGGAUAUACAUGAGGAUCACCCAUGUGAAAGAAAAAAGUGAGGAAGAAAAGUAGAAGGCGCUGACG [salish99_ex3_r3_016] (puzzle: Exclusion 3)	–	–	8.93 nM	–	5.86 nM	14.4 nM
UCUAGUUGGCAAGGAUAUCCUACAUUGUUCUGGCCCGGGCAUGCUACAUGAGGAUCACCCAUGUGGGAGAAGGUGCGUCAUUGC [Design 22] (Eterna round: R96, puzzle: Exclusion NG 2)	70.9 nM	82.1 nM	–	50.5 nM	–	–
UCGUUCCGUGUAGGAUAUUGGCCUUCCCUGGGCCGAGAAGGACAUGAGGAUCACCCAUGUAUGUUAUUAUCGCGCGUGGCGCAU [Design 86] (Eterna round: R96, puzzle: Exclusion NG 1)	73.9 nM	18.4 nM	–	14.5 nM	–	–
GUUCAACAUGAGGAUCACCCAUGUCAGGAUAUGCGAAUUUCAUCAAAAGAUGAAAUUUGCAGAAGGGACUGAAC [Omei Ex1 A30] (Eterna round: R97, puzzle: Exclusion 1)	30.5 nM	27.2 nM	–	–	–	–
GUGAACGGAGGAUAUAUAUGGGCAGCAUACGCUGCAGCUUCACAUGAGGAUCACCCAUGUAGAAGGCUGUACAC [Mat - Exclusion 2 - Mod of Hyphema - D101] (puzzle: Exclusion 2)	–	–	8.26 nM	–	–	–
UACAGUCAUCCUUAUUGUUACAUGAGGAUCACCCAUGUUAGUAUAAUUAAGUUAUGUAAGUUUGUUGUUCGUUUUAU [JR_STOV1_v2_Sub075] (Eterna round: R97, puzzle: Sensor, turn-off variant 1)	81.9 nM	84.6 nM	–	–	–	–
ACAUGUCAUCGAGGAUAUUGUACACAUGAGGAUCACCCAUGUAUUCGGUUGCUCUCGCGUGAGUUCGAGAAGGCGAUGUACAUU [Ex NG2 #82] (Eterna round: R96, puzzle: Exclusion NG 2)	105 nM	29.3 nM	–	24.2 nM	–	–
AUCAUGUAAGGAUAUCUUACAUGUGACUUCGGUCACUGUCAAGAGAAGGUACAUGAGGAUCACCCAUGUAUGAC [Ex4-3: 51] (puzzle: Exclusion 4)	–	–	16.8 nM	–	–	–
UAGAUGCUCAGGGAGUGUGACAUGAGGAUCACCCAUGUGGUGGUAGGGAACAAGCUUUUUGCACGUACUUAUGAGUA [JR_SV3TOV1_Sub007] (Eterna round: R96, puzzle: Sensor v3, turn-off variant 1)	435 nM	497 nM	–	148 nM	–	–
UUCCUACAUGAGGAUCACCCAUGUGAGGAUAUGCAUCGUAUUAUUCUCGUAUGUAGUAGCAGAAGGCGCAUUGG [Starry Exclusion 1.1] (puzzle: Exclusion 1)	–	–	36.9 nM	–	121 nM	31.2 nM
GGAUGUUCAGAGGAUAUCGAUCCCGAGACCGGGCGAGAAGGUUGAACAUGAGGAUCACCCAUGUGAGGCCUAAC [Cebezais] (Eterna round: R97, puzzle: Exclusion 6)	38.5 nM	12.7 nM	–	–	–	–

Sequence	apparent KD of MS2 coat protein (input ligand: FMN 200 uM)	apparent KD of MS2 coat protein (input ligand: none)	apparent KD of MS2 coat protein [1]	apparent KD of MS2 coat protein [2]	apparent KD of MS2 coat protein [3]	apparent KD of MS2 coat protein [4]
AUAUAUAGUGUGAGGAUAUGCUGGUCCUUGGAUCAGCAGAAGGCACAUGAGGAUCACCCAUGUAGUUUAUUUUG [Mat - Exclusion 4 - JL Mod - D6] (puzzle: Brourd's mod of Exclusion 4)	–	–	17.3 nM	–	–	–
UACAUGAGGAUCACCCAUGUUUUGUCGUGUAUGGUAUUUAUCUAGGAUAUCAGGUUAUUUAUUUAUGAGAAGGAGAAUAUUAAU [JMF's solution 25] (Eterna round: R96, puzzle: Exclusion NG 3)	33.3 nM	34.3 nM	–	37.5 nM	–	–
AAUAACAGAGGAUAUACUGUUUUAUGUGUUUGUUAUUUUGAACAUGAGGAUCACCCAUGUAGAAGGCUGAAUGA [JMF 64] (puzzle: Exclusion 2)	–	–	27.1 nM	–	–	–
UCCUUGUUAGGAUAUUGCCUGUGGGCUAAUCUGAAUACAGGUAAGAAGGGACAUGAGGAUCACCCAUGUGACAA [Eternabot (Original) Solution 32] (Eterna round: R97, puzzle: Exclusion 4)	39.3 nM	28.8 nM	–	–	–	–
GGCAAACAUGAGGAUCACCCAUGUCAGGAUAUUAGGCGAUCGUCGAUAGACGAUAGCCUGAGAAGGGACAUGCC [Mat - Exclusion 1 - Eli Mod - D16] (Eterna round: R97, puzzle: Exclusion 1)	391 nM	85.2 nM	–	–	–	–
AUUAAUUGUCAGAUGGGUGACAUGAGGAUCACCCAUGUCACAAGCUUUUUGCUCGUCUUAUAAUUAACCCAUCUGAC [Stov1/11-A2] (Eterna round: R97, puzzle: Sensor, turn-off variant 1)	14.1 nM	13.3 nM	–	–	–	–
CUUAGCCUAAAAUCACGCAAGCUUUUUACUUGUCUUAAGACAUGAGGAUCACCCAUGUCCGGGCUGAACUUAUGGAA [Zaortequ] (puzzle: Sensor v3, turn-off variant 2)	–	–	269 nM	–	21.2 nM	21.4 nM
AGGUGGAAGCAGGAUAUGCUUGUAUAAUUGAUAGCAGAAGGGCUAACAUGAGGAUCACCCAUGUAAGAGGUGUA [JR_E6_Sub058] (puzzle: Exclusion 6)	–	–	177 nM	–	340 nM	206 nM
GAUUAACAUGAGGAUCACCCAUGUGAGGAUAUGGACUUGCUCACUUUCCGAUUCGAGUCUAGAAGGCGCAUCUU [1986#116] (Eterna round: R97, puzzle: Exclusion 1)	30.6 nM	27.1 nM	–	–	–	–
UUGGAGAUAGGAUAUACGAGGAGAGUAGAGGGAAGGUGAUGACAUGAGGAUCACCCAUGUAGAAGGAUCAGGAG [JR_Exclu2_Sub068] (puzzle: Exclusion 2)	–	–	112 nM	–	–	–
AAAUACAAGCAGAGAUCCUACAUGAGGAUCACCCAUGUGCUCGUCUUAUAAAGUACUAUCACGAAAGUGAUAGUACA [Sensor 3, v1 - 17] (puzzle: Sensor v3, turn-off variant 1)	–	–	41.8 nM	–	184 nM	218 nM
UAAAUGUGAGGAUAUCAGGUGUGCUAGAAUACUGGUACAUCUGAGAAGGCACAUGAGGAUCACCCAUGUUCCUU [Mat - Exclusion 4 - Mod of JL - D53] (puzzle: Exclusion 4)	–	–	15.8 nM	–	–	–
GGUUUGCGGCAGGAUAUCCAUCCGCGGUAUGGUGGAGAAGGGCUGACAUGAGGAUCACCCAUGUGCGUCCUAGG [salish99_ex6_r4_018] (Eterna round: R97, puzzle: Exclusion 6)	24.6 nM	18.8 nM	–	–	–	–
AGCUGUGGCCGAGGAUAUCUGAACUUUCAAACCGAAAUAUAAUCGGACAUGAGGAUCACCCAUGUAGAGAAGGCGGUCUCAGCA [Eli eng2 - 061] (Eterna round: R96, puzzle: Exclusion NG 2)	–	–	–	10.5 nM	–	–
CCGAAUAUGCAGGAUAUCGUAUAGGAAACUAUACGAGAAGGGUAAACAUGAGGAUCACCCAUGUUCCUUAACGG [Mat - Exclusion 6 - Eli Mod - D81] (puzzle: Exclusion 6)	–	–	20.3 nM	–	–	–
UACAUGAGGAUCACCCAUGUUUUGUCGUGUAUGGUAUUUAUCUAGGAUAUCAAUCUAUUUAGUUAUGAGAAGGAGAAUAUUAAU [JMF's solution 54] (Eterna round: R96, puzzle: Exclusion NG 3)	39.1 nM	37.8 nM	–	29.9 nM	–	–
CUGGUCCGAGGAUAUAUUAUGUGAUACAUGAGGAUCACCCAUGUUAUAUGAUGGAUAUUAAUAGAAGGCGGACUAG [Mat - Exclusion 5 - JL mod - D73] (puzzle: Exclusion 5)	–	–	71.5 nM	–	85.5 nM	83.9 nM
